{"source": "patent US10208288B2", "about": "“Differentiation of human embryonic stem cells into pancreatic endocrine cells” (Janssen Biotech, Inc., priority 2012, dated 2019)", "molecules": {"B1": {"name": "Ephrin-A4: Ephrin ligand protein, R & D Systems catalogue number 369-EA (protein, UniProt P52798 26-170, looked up)", "Ephrin-A4": "LRHVVYWNSSNPRLLRGDAVVELGLNDYLDIVCPHYEGPGPPEGPETFALYMVDWPGYESCQAEGPRAYKRWVCSLPFGHVQFSEKIQRFTPFSLGFEFLPGETYYYISVPTPESSGQCLRLQVSVCCKERKSESAHPVGSPGES"}}, "test_system": "cells of the human embryonic stem cell line H1 differentiated to stage 5", "assay": "Immunostaining for insulin protein expression at the end of Stage 5", "type": "cell-based", "settings": "50 or 100 ng/ml for three days at stage 5, immunostaining vs control; FIG. 2, FIG. 3", "method": "Cells of the human embryonic stem cell line H1 (hESC H1, passage 40) were seeded as single cells at 1×10^5 cells/cm^2 on MATRIGEL™ (1:30 dilution; BD Biosciences, NJ)-coated dishes in mTeSR®1 media supplemented with 10 μM of Y27632. Forty-eight hours post seeding, cultures were washed in incomplete PBS (phosphate buffered saline without Mg or Ca). Cultures were differentiated into pancreatic endoderm/endocrine lineages as follows: • a) Stage 1 (Definitive Endoderm (DE)—3 days): Cells were cultured for one day in stage 1 media (see Example 1, above). Cells were then cultured for an additional day in MCDB-131 medium supplemented with 0.1% fatty acid-free BSA, 0.0012 g/ml sodium bicarbonate, 1× GlutaMax™, 4.5 mM D-Glucose, 100 ng/ml GDF8, and 0.1 μM MCX compound. […]", "data": [{"molecule": "B1", "values": [{"measurement": "protein expression of insulin", "value": "significantly enhanced"}]}]}
